Assay results from patent publication US20230040275A1, “SECRETABLE PROTEIN INDUCED IMMUNE TOLERIZATION AND TREATMENT OF AUTOIMMUNE, ALLERGIC AND OTHER DISEASES AND DISORDERS” (SPARK THERAPEUTICS, INC., priority 2019, published 2023).

Test system: Huh7 cells
Assay: Plasma membrane retention of full-length MOG in transformed Huh7 cells
Type: cell-based
Settings: 72 hr post-transfection, leaders WT, Sp7, HC7s
Description: To examine the secretability of the full-length MOG protein the plasma membrane and cell lysate and media of transformed Huh7 cells were examined for MOG expression. Huh7 cells were grown to ˜80% confluency and transformed using plasmids expressing full-length myelin oligodendrocyte glycoprotein (MOG) with various leader sequences: Wildtype (WT; native MOG leader), human chymotrypsinogen B2 signal peptide (“Sp7”; 18 amino acid signal peptide of NCBI reference sequence NP_001020371), or a combination of WT with the heavy chain 7 sequence (HC7s; Haryadi et al., PloS ONE 10(2): e0116878. doi:10.1371/journal.pone.0116878 (2015)). Cells and media were harvested 72 hr post-transfection. Plasma membrane fractions from cells were enriched as described (Nishiumi et al., Biosci. Biotechnol. Biochem. 71 (9), 2343-2346, (2007)) Briefly, cells were harvested in modified Buffer A (50 mM Tris, 0.5 mM DTT) with protease inhibitors (cOmplete™ tablets, Roche) and 0.1% Triton X100. The cells were sheared by passage through a 25-gauge needle; 3 times. The homogenate was centrifuged for 10 min at 1000×g at 4° C. The supernatant was harvested as post-plasma membrane (PPM) fraction. […] Standard WES parameters were used, and samples were analyzed on Compass Software (ProteinSimple).

B1: full-length MOG: full-length myelin oligodendrocyte glycoprotein expressed from plasmids with WT, Sp7 or HC7s leader sequences (protein, UniProt Q16653 1-247, looked up)
chain: MASLSRPSLPSCLCSFLLLLLLQVSSSYAGQFRVIGPRHPIRALVGDEVELPCRISPGKNATGMEVGWYRPPFSRVVHLYRNGKDQDGDQAPEYRGRTELLKDAIGEGKVTLRIRNVRFSDEGGFTCFFRDHSYQEEAAMELKVEDPFYWVSPGVLVLLAVLPVLLLQITVGLIFLCLQYRLRGKLRAEIENLHRTFDPHFLRVPCWKITLFVIVPVLGPLVALIICYNWLHRRLAGQFLEELRNPF
modifications: full-length
localisation of full-length MOG (plasma membrane vs cell lysate and media): retained in the plasma membrane | localisation of full-length MOG (plasma membrane vs cell lysate and media) (listed as Mature MOG): enriched in the plasma membrane
